Tests used:
Assay in all cases: BLI
[1] = biological target: m9
[2] = biological target: m12
[3] = biological target: m14
[4] = biological target: m15
[5] = biological target: m13
[6] = biological target: m11
[7] = biological target: T1, full length H7 HA trimer (influenza A virus, subtype H7 (strain …))
[8] = biological target: T1, full length H7 HA trimer; remark: listed apart in the source

B1: CT149 Fab (Fab, V domains shown)
VH: QVQLVQSGAEVKKPGASVKVSCKTSGYSFSTYGVSWVRQAPGQGPEWVGWISAYTGITDYAQKFQGRVTLTTDATTATAFLDLRSLRPDDTATYFCARDKVQGRVEVGSGGRHDYWGQGTLVIVSS
VL: EVVLTQSPGTLALPPGERATLSCRASHRVGSTYIAWYQQKSGQAPRRLIYGASNRATDIPDRFSGSGSGTDFTLTIRRLEPEDSAVYYCQQFSVSPWTFGQGTRVEIK
With B1 the Kd [1] was 7 nM, the koff [1] was 0.003 s⁻¹ and the Kd [2] was 8.2 nM. It also gave a koff [2] of 0.003 s⁻¹, a Kd [3] of 7.2 nM and a koff [3] of 0.0029 s⁻¹. It also gave a Kd [4] of 9.8 nM, a koff [4] of 0.0034 s⁻¹ and a Kd [5] of 2.7 nM. For the same binder, the koff [5] was 0.0018 s⁻¹, the Kd [6] was 9 nM and the koff [6] was 0.0033 s⁻¹. For the same binder, the Kd [7] was 3.7 nM and the koff [8] was 0.0031 s⁻¹.

From publication doi:10.1101/497123 (2018)
